The results in this text go back to US20170224833A1, “SELF-ASSEMBLING MOLECULES THAT ACCUMULATE IN ACIDIC TUMOR MICROENVIRONMENTS” (OHIO STATE INNOVATION FOUNDATION, priority 2014, published 2017).

Residues, ends and D or L forms follow the SMILES beside them. *: point of attachment. Palmitoyl = CCCCCCCCCCCCCCCC(=O)*

Holding throughout (assay type): physicochemical
Series [1] can be described thus: Critical aggregation concentration (CAC), pyrene 1:3 method. As for the experimental part:
For the CAC measurements, a series of solutions of the PA with concentrations ranging from 10 nM to 300 μM were prepared using serial dilutions in 150 mM NaCl and 2.2 mM CaCl2. The final concentration of pyrene in each solution was fixed to be 1.23 μM. This was followed by pH adjustment of the solutions using careful additions of HCl or NaOH. 70 μL of each solution was transferred to a 96-well plate and the fluorescence emission of pyrene was monitored using a hybrid reader fluorimeter (BioTek Synergy H4) at room temperature. The excitation wavelength was set at 335 nm. The ratio of the intensities of emissions at 376 nm and 392 nm were then plotted as a function of the PA concentration (log scale). The CAC was determined from an abrupt change in the slope of the plot using the least-squares fitting technique.
For CAC measurements, a series of solutions of either pure PA or PA mixture with concentrations ranging from 100-300 nM to 500-700 μM were prepared using serial dilutions in 150 mM NaCl and 2.2 mM CaCl2 (and 1.8 mM 20 kDa PEG in select samples). The final concentration of pyrene in each solution was fixed to be 4.5 μM. This was followed by pH adjustment of the solutions using careful additions of HCl or NaOH. 100 µL of each solution was transferred to a 96-well plate and the fluorescence emission of pyrene was monitored using a hybrid reader fluorimeter (BioTek Synergy H4) at room temperature. The excitation wavelength was set at 335 nm. The ratio of the intensities of emissions at 376 nm and 392 nm were then plotted as a function of the PA concentration (log scale). The CAC was determined from an abrupt change in the slope of the plot using the least-squares fitting technique.
The pyrene 1:3 method was used to determine CAC for the PAs (Aguiar, J., et al. J. Colloid Interface Sci. 2003 258:116-122). For both PA71 and PA68, CAC measurements were performed at various pH values (5-10). Samples of high PA concentration (300-750 μM) were prepared in deionized water containing 150 mM NaCl and 2.2 mM CaCl2. These samples were raised to 9 or greater pH using NaOH and heated at 80° C. for 30 minutes. Samples were then allowed to cool to room temperature and pH was altered to the desired value using dilute NaOH and HCl. Solutions containing only aqueous 150 mM NaCl and 2.2 mM CaCl2 and solutions containing these salts, a 1:1 solution of water and methanol, and 62 μM pyrene were also prepared. Each of these solutions was divided into various portions and adjusted to appropriate pH values. The PA solutions were serially diluted with the corresponding salt solutions with a total of 125 μL at each concentration. 5 μL of the pyrene containing solution as added to each dilution for a final pyrene concentration of 2.4 μM. Each diluted sample was probed for fluorescence with an excitation wavelength of 335 nm. Fluorescence was recorded with particular attention paid to the 376 nm and 392 nm emission peaks. The ratio of these two peaks was plotted versus PA concentration on a log scale. The CAC was determined from an abrupt change in the slope of the plot using the least-squares fitting technique.
Critical aggregation concentration (CAC) measurements were carried out to determine the concentration at which micelles or nanofibers begin to form by using the pyrene 1:3 method, (citation) All samples were basified to a pH of 10, stirred at 90° C. for 30 minutes in an oil bath and cooled to room temperature. HCl and NaOH were then added to set the PA solution specific pH value. PAs with concentrations ranging from 100 μM to 500 μM were serial diluted with 150 mM NaCl and 2.2 mM CaCl2. A pyrene solution was then added to each of the diluted samples, for a final pyrene concentration of 4.5 μM. 100 μL of each serial diluted sample were transferred into a 96-well plate and the fluorescence emission of the pyrene was monitored by a hybrid reader fluorimeter (BioTek Synergy H4) at room temperature with an excitation wavelength of 335 nm. […]

A short description of series [2]: pH titration of peptide amphiphiles (pKa). The settings on record: 10 μM. How it is done: The titration measurements were conducted on 10 μM peptide amphiphile solutions prepared in 150 mM NaCl and 2.2 mM CaCl2 using milli-Q water. The solution was heated at 80° C. for 30 minutes followed by slow cooling at room temperature. The pH of the solution was then adjusted to 4 using HCl. Finally, an Accumet XL15 pH meter (Fisher Scientific) coupled with an Orion Ross Ultra semi-micro electrode (8103BNUWP, Thermo Scientific) was used to track changes in pH of the solution as NaOH solution was added in small increments. pKa values were obtained from the second inflection points of the first derivative plots of the titration data. The first transition corresponds to neutralization of excess HCl. The calculated pKas reflect the average pKa for all four glutamic acids.

Series [3] can be described thus: CD spectroscopy in artificial mouse serum (150 mM NaCl, 2.2 mM CaCl2, 1.8 mM 20 kDa PEG). The following applies: both pure and artificial mouse serum. As for the experimental part: Measurements were done on a Jasco-815 Circular Dichroism spectrometer using 0.5-1 cm path length quartz cuvettes. 500-10 μM of either pure PA or PA mixtures were prepared in 150 mM NaCl and 2.2 mM CaCl2 (and 1.8 mM 20 kDa PEG in select samples) by dilution from a concentrated PA stock (0.5-1 mM, pH 9). Double de-ionized Milli-Q water was used for preparing all solutions. The solutions were then heated at 80° C. for 30 minutes in a water bath and gradually cooled to room temperature. An Accumet XL15 pH meter (Fisher Scientific) coupled with an Orion Ross Ultra semi-micro electrode (8103BNUWP, Thermo Scientific) was used to adjust the pH of the solution to the desired value followed by collection of the CD spectra. Each trace shown was averaged over 3 accumulations and was baseline subtracted using aqueous solutions containing salts only. All spectra are cut-off below 200 nm due to absorption by NaCl and CaCl2. The same procedure was followed for the salt control samples with 3.0 and 4.0 mM CaCl2.
Finally, a medium that accurately replicated the ionic strength and the crowded environment of pure serum and enabled characterization of the PA self assembly behavior using CD and CAC measurements without interference from protein signals was created. This artificial serum solution contains 1.8 mM of 20 kDa PEG, 150 mM NaCl and 2.2 mM CaCl2. […]

[4] abbreviates: pH 5, 150 mM NaCl, 2.2 mM CaCl2.

Turning to `CCCCCCCCCCCCCCCC(=O)N[C@H](C(=O)N[C@@H](C)C(=O)N[C@@H](C)C(=O)N[C@@H](C)C(=O)N[C@@H](CCC(=O)O)C(=O)N[C@@H](CCC(=O)O)C(=O)N[C@@H](CCC(=O)O)C(=O)N[C@@H](CCC(=O)O)C(N)=O)[C@@H](C)CC` [PA1] (Palmitoyl-IAAAEEEE-NH2), the “critical aggregation concentration (CAC)” value in series [1] (pH 6.6) stood at 6.0 µM. Also, in series [2], the “glutamic acids in the deprotonated form at the transition” value is 98.8%.
Take “palmitoyl-YYAAEEEEEK(DO3A:Gd)-NH2 (Palmitoyl-YYAAEEEEEK(DO3A)-NH2; also: DO3A chelates Gd) [PA74]”: the “CAC higher than PA75” value in series [1] (pH 6) was approximately 500%; in series [1] (pH 8), 5%. The CAC is 9.3 µM in series [1] (pH 7.06) and 21.6 µM in series [1] (pH 9.02).
With `CCCCCCCCCCCCCCCC(=O)N[C@@H](C)C(=O)N[C@H](C(=O)N[C@@H](C)C(=O)N[C@@H](C)C(=O)N[C@@H](CCC(=O)O)C(=O)N[C@@H](CCC(=O)O)C(=O)N[C@@H](CCC(=O)O)C(=O)N[C@@H](CCC(=O)O)C(N)=O)[C@@H](C)CC` [PA68] (Palmitoyl-AIAAEEEE-NH2), the “CAC, times lower than PA1” value in series [1] (comparable pH values) was 3-5. For the same compound, the CAC in series [1] (setting [4]) was found to be 1.1 µM; in series [1] (pH 10, 150 mM NaCl, 2.2 mM CaCl2), 7.5 µM.
In the case of “Palmitoyl-AIAAEEEEK(DO3A:Gd)-NH2 (Palmitoyl-AIAAEEEEK(DO3A)-NH2; also: DO3A chelates Gd) [PA71]”, the “CAC (below the detectable limit)” value in series [1] (all pH values tested except pH 10) lay in the range of 200 to 300 nM. In series [1] (setting [4]), the CAC was determined as 1.3 µM. Moreover, the “CAC, fold lower than PA5” value in series [1] (pH ~7) is more than 6.
As to “Palmitoyl-IAAAEEEEK(DO3A:Gd)-NH2 (Palmitoyl-IAAAEEEEK(DO3A)-NH2; also: DO3A chelates Gd) [PA5]”, the “morphology across pH” value in series [3] is given as “remains nanofibers across all measured pH values”.
Regarding “Palmitoyl-AAAIEEEE-NH2 (SMILES CCCCCCCCCCCCCCCC(=O)N[C@@H](C)C(=O)N[C@@H](C)C(=O)N[C@@H](C)C(=O)N[C@H](C(=O)N[C@@H](CCC(=O)O)C(=O)N[C@@H](CCC(=O)O)C(=O)N[C@@H](CCC(=O)O)C(=O)N[C@@H](CCC(=O)O)C(N)=O)[C@@H](C)CC) [PA70]”, the “aggregation state by pyrene 1:3 method” value in series [1] (all pH and concentration values) was “in the aggregated state across all pH and concentration values”.
